For 1 molecule, Kd results are on record in paper PMC5909435.

This data set concerns the target T1, TFAM K4Q4 (acetyl-lysine mimic) (Homo sapiens, UniProt Q00059 43-246, K62Q;K76Q;K111Q;K118Q).
T1 sequence: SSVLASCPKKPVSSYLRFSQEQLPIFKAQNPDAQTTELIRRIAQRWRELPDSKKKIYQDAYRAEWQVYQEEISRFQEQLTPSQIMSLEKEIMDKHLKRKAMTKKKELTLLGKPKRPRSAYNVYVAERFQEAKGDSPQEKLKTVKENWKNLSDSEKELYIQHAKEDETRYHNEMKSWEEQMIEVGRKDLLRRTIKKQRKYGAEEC
As to the kind of experiment: MST.

B1: non-specific 18 bp duplex with 13 nt overhang (mixed)
DNA 1: GTCACTGTTCGAGCACCA
DNA 2: CCATAGATAGCATTGGTGCTCGAACAGTGAC
As a reminder, the Kd is the free concentration of one partner at which half of the binding sites on the other are occupied at equilibrium, for simple one-to-one binding. Low values mean tighter binding, high ones weaker binding. Consider B1, for which the Kd is 131 ± 17 nM.
